± gives the standard deviation of the averaged measurements.
System: ATP
Assay: switch fluorescence ratio, 500 uM ATP over buffer (Cy3 cluster intensity, sum of 5 cycles each) (fold (ratio)); higher = stronger signal-on switching upon ATP binding; sequences stand for … in TCGTCGGCAGCGTCAGATGTGTATAAGAGACAGTTTTTTTTTTTTTTTTTTTTTTTTT…TC
Conditions: aptamer strand: ATP DNA aptamer (quencher-CACCTGGGGGAGTATTGCGGAGGAAGG + anchor), 100 nM annealed; ATP concentration: 500 uM
In short: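 Values give the fluorescence ratio for each switch-domain sequence, averaged from per-cluster ratios of summed target-cycle to summed buffer-cycle Cy3 intensity. The Cy3-labelled switching-strand clusters sat on a modified Illumina MiSeq flow-cell, were annealed to 100 nM quencher-labelled ATP aptamer, and were imaged in selection buffer, then after 15 min with 500 uM ATP at 22 °C. Five cycles ran with NaOH stripping and re-annealing between them, and clusters outside 100-1000 RFU were excluded.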
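Also: ATP exposure 15 min at 22 °C before imaging.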

| Sequence | switch fluorescence ratio |
| --- | --- |
| CGAGGGGTCC | 0.975 ± 0.043 |
| GATGTTCGAG | 0.991 ± 0.011 |
| TTTTGGGCTG | 1 ± 0.067 |
| TTATGAGGCT | 1.01 ± 0.013 |
| AGCCGGACGC | 1.066 ± 0.0075 |
| GGGGACGCTG | 0.98 ± 0.012 |
| TAATCATCGA | 0.99 ± 0.017 |
| ATTTCGTGCG | 1.01 ± 0.061 |
| GCGTGTGGGG | 1.02 ± 0.021 |
| GGTGAAAACG | 0.9913 ± 0.0094 |
| ATTAAGGTGC | 1.31 ± 0.075 |
| TCTTATTGGG | 0.995 ± 0.042 |
| GCTCCAGTTA | 1.178 ± 0.0045 |
| ATGTTAGAAA | 1.02 ± 0.032 |
| TTGAAGTTCG | 0.986 ± 0.022 |
| TGGGGCGGAG | 0.979 ± 0.031 |
| GGCTAATGCG | 1.01 ± 0.036 |
| ACTTGTTATG | 0.996 ± 0.028 |
| ACACTGCTCG | 1.05 ± 0.011 |
| GGTAGATTCG | 0.994 ± 0.027 |
| CGGGGGTGGG | 1.01 ± 0.047 |
| TAGGCTAGGT | 1.017 ± 0.0047 |
| CAACGCGTTG | 1 ± 0.013 |

| Sequence | switch fluorescence ratio |
| --- | --- |
| TCCATTGTCC | 1.08 ± 0.052 |
| GGTTGGGCGA | 0.986 ± 0.021 |
| TACAATTTTA | 1.006 ± 0.0041 |
| TTGGGTAATG | 1.01 ± 0.027 |
| TGGGGGTTGG | 1 ± 0.024 |
| AGCTTAGGGC | 0.989 ± 0.03 |
| TTATTGCTGT | 0.989 ± 0.013 |
| GGGGGCGTTT | 1.01 ± 0.045 |
| TCTATTTGTA | 0.9993 ± 0.0071 |
| TAGTGCCGGT | 0.993 ± 0.016 |
| TGTTGAATGT | 1.02 ± 0.03 |
| AAACACGTTG | 1.018 ± 0.0094 |
| AGTGGCACTG | 0.996 ± 0.0088 |
| GAGGGGGCGC | 1.02 ± 0.031 |
| TTTGTGTTAG | 0.9983 ± 0.0082 |
| GGGAGGGAGG | 0.988 ± 0.021 |
| TGGGATCCGC | 1.03 ± 0.056 |
| GCGAGGGAGT | 1.02 ± 0.037 |
| TTAAGGAGCG | 1.04 ± 0.016 |
| TGGGTGGACA | 1.02 ± 0.08 |
| CATAATGCGG | 1.005 ± 0.0012 |
| TGTCGTGTAG | 1.01 ± 0.0094 |
| CGGGTATTTC | 1.01 ± 0.014 |

| Sequence | switch fluorescence ratio |
| --- | --- |
| GGAGGGGGGT | 1.01 ± 0.023 |
| TATGGGACTC | 1.032 ± 0.0025 |
| ACCGTCTGTA | 1.014 ± 0.0058 |
| GTGAGCGACG | 0.965 ± 0.027 |
| TAGGGATCCC | 1.04 ± 0.028 |
| TAGGCTGTAC | 2.84 ± 1.6 |
| GGGGTCCTTA | 1 ± 0.018 |
| GTGGGGCAGC | 0.945 ± 0.015 |
| TGACTTTCGC | 1.06 ± 0.028 |
| CAGTCTTGC | 1.03 ± 0.021 |
| CCAGTAATGT | 1.04 ± 0.041 |
| CGACGGATTT | 1.12 ± 0.029 |
| CGCTTTTGCT | 0.969 ± 0.029 |
| TTGACGAGTA | 1.1 ± 0.13 |
| TTCGTGTTGG | 0.973 ± 0.025 |
| ACGATTGGTA | 1.03 ± 0.092 |
| GACCGGGCCC | 1.01 ± 0.015 |
| AATCGAGTTG | 0.985 ± 0.013 |
| GTCCTTGATA | 1.01 ± 0.024 |
| TGGGGTTGTG | 0.987 ± 0.031 |
| CAAAGGTACA | 1.008 ± 0.0063 |
| CGCATTTAGG | 1.08 ± 0.027 |
| TGTTTTAGGC | 0.977 ± 0.02 |

| Sequence | switch fluorescence ratio |
| --- | --- |
| GAGACAGCGC | 1.02 ± 0.062 |
| GAGGGAAGAG | 1.01 ± 0.021 |
| GACGGGGCGT | 0.989 ± 0.013 |
| ATGGTCTTTT | 1.014 ± 0.0032 |
| TGTGGGACGT | 0.952 ± 0.01 |
| TTGAAGTTTT | 0.991 ± 0.039 |
| TAGCATCTTT | 0.98 ± 0.067 |
| TACATGGACC | 1.12 ± 0.025 |
| ACCGGGGTTA | 0.986 ± 0.033 |
| ACGACTTTTT | 1.03 ± 0.063 |
| TTGGCATCAC | 1.06 ± 0.045 |
| GTGGAAGTGG | 1.02 ± 0.034 |
| ATCGTATGTA | 0.9708 ± 0.0055 |
| AGCGACTGTA | 1.15 ± 0.22 |
| GGGATTGTTG | 0.995 ± 0.041 |
| TAGCTGTAAT | 1.02 ± 0.046 |
| AGTAAACCAT | 1.04 ± 0.03 |
| ATAGGATGAG | 1.022 ± 0.0091 |
| TTTTTCAGGG | 1.01 ± 0.026 |
| TAATTTTTGC | 1.02 ± 0.043 |
| TTAATTTGGT | 0.971 ± 0.03 |
| ATTAAATATC | 1.03 ± 0.024 |
| GGGCTAGGCT | 0.9684 ± 0.006 |

| Sequence | switch fluorescence ratio |
| --- | --- |
| GGTGTGCCGT | 0.989 ± 0.1 |
| TGAGCACAGG | 1.455 ± 0.0091 |
| ACTAGGTCAT | 1.03 ± 0.017 |
| TTCAGCGTCT | 0.975 ± 0.043 |
| ACACACGACG | 1.29 ± 0.013 |
| ATTTTGTTTC | 0.987 ± 0.032 |
| GCGAGGCCGT | 1 ± 0.056 |
| ACGTTGGCGT | 0.966 ± 0.041 |
| ATTTCGGAGA | 0.971 ± 0.011 |
| CAAATGGTTA | 0.974 ± 0.01 |
| CAAGAACGGT | 0.969 ± 0.0077 |
| AAGTTGGATG | 0.977 ± 0.019 |
| GAGGGCTTGG | 1.05 ± 0.016 |
| TAGATAGAAT | 1 ± 0.045 |
| GGAGAGATTT | 1.01 ± 0.034 |
| CGGGTAGGCT | 1.02 ± 0.057 |
| TTACTTAGGG | 1.14 ± 0.17 |
| TAGAATGGAA | 1.02 ± 0.012 |
| CGGGTTAATG | 0.986 ± 0.019 |
| AATAGTATCT | 1.01 ± 0.029 |
| CTTGGTCGGC | 1.068 ± 0.0026 |
| GCGGTATGGG | 0.9645 ± 0.0046 |
| GGGCCAGTTG | 1.0149 ± 0.00024 |

| Sequence | switch fluorescence ratio |
| --- | --- |
| GGGATAGAGA | 1.02 ± 0.03 |
| CCTCGACAGC | 3.43 ± 0.42 |
| ATTCGGAATA | 1.06 ± 0.016 |
| AATTAGGGTG | 1.09 ± 0.05 |
| AGTTATACAC | 1.014 ± 0.0099 |
| CGCATGAGTT | 1.017 ± 0.0098 |
| ACGGAACAAG | 1.09 ± 0.12 |
| GCGGAAAAAG | 0.957 ± 0.011 |
| TTTGGAGCAC | 1.6 ± 0.2 |
| GGCCGGATAG | 1.03 ± 0.021 |
| TTTGAGAAAG | 0.992 ± 0.019 |
| TTTTATAATT | 1.04 ± 0.089 |
| TGGGGGACAG | 1 ± 0.029 |
| TAATCTGAGT | 1.01 ± 0.025 |
| CGGTCAAAAA | 1.03 ± 0.033 |
| TTAGGAAAGG | 1.06 ± 0.12 |
| TTTTGGTCGG | 0.983 ± 0.022 |
| TTTTTTCTG | 1.04 ± 0.097 |
| TTGTTA | 0.964 ± 0.044 |
| TATGCAATCA | 1.03 ± 0.02 |
| AATGGCAGTG | 1 ± 0.048 |
| GGGGTTGTCT | 1.01 ± 0.072 |
| CCTCATGACA | 1.263 ± 0.0096 |

| Sequence | switch fluorescence ratio |
| --- | --- |
| GAGGCGACGT | 0.963 ± 0.027 |
| CCCCGGCTGG | 1.125 ± 0.005 |
| TAAGCTGGTA | 0.995 ± 0.036 |
| ACATTCACGT | 1.52 ± 0.033 |
| AAGGGGTCTA | 1.002 ± 0.0085 |
| GCTTCTGAGG | 1.07 ± 0.018 |
| CTGTTGGTGG | 0.99 ± 0.017 |
| TAGGGGGACG | 1.04 ± 0.068 |
| GGTGCACGGT | 0.978 ± 0.051 |
| GGCACATTTT | 1.01 ± 0.022 |
| AAGGCGAAAA | 0.976 ± 0.013 |
| ACTTTTACTC | 1.16 ± 0.014 |
| AAAGTATATG | 0.983 ± 0.029 |
| CGGGTGGTAT | 0.991 ± 0.023 |
| TTTATTTGAT | 0.9955 ± 0.0012 |
| GCGGCTTAAC | 1.02 ± 0.022 |
| GCGGGTACTG | 1.001 ± 0.0052 |
| GGAAGAATGG | 0.985 ± 0.024 |
| CTTGAAAAGG | 0.9995 ± 0.0038 |

— the supplement of paper PMC10126150
